Measurements from patent publication US20190142902A1 (RELAXERA PHARMAZEUTISCHE GESELLSCHAFT MBH, published 2019).

Target: T1, human relaxin receptor RXFP1 (relaxin family peptide receptor 1) (human, UniProt Q9HBX9 1-757)
T1 sequence (looked up): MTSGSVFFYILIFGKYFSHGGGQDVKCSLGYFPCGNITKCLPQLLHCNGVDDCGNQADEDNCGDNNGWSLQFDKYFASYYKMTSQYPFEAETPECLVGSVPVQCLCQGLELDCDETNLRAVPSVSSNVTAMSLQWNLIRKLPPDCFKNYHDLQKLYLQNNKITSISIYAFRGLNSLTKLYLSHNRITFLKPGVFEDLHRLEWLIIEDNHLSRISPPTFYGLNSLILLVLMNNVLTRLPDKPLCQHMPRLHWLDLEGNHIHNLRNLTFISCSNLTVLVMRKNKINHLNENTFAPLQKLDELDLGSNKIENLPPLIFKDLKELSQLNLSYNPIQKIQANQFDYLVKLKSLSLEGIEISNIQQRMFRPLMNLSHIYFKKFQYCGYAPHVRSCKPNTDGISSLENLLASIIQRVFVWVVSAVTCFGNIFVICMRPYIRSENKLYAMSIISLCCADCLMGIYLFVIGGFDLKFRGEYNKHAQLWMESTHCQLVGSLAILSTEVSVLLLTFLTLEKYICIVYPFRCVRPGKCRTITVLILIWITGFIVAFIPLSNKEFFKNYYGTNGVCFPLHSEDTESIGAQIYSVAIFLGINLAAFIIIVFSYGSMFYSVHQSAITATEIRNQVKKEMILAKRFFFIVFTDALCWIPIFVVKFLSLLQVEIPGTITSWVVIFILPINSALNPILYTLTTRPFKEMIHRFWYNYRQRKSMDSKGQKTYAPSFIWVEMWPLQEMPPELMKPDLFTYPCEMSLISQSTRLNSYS
Assay: cell-based or functional assay

B1: -Asp-shRlx, single aa degradation product of synthetic human relaxin-2 (ligand)
chain 1: ELYSALANKCCHVGCTKRSLARFC
chain 2: SWMEEVIKLCGRELVRAQIAICGMSTWS
modifications: pGlu (pyroglutamate) at position 1
cAMP response pEC50 (cAMP reporter gene assay, HEK293T cells overexpressing RXFP1): 10.2 pEC50 (negative decadic logarithm of the half-maximum concentration)
